Measurements as given in US20150132307A1 (Hoffmann-La Roche, published 2015).
Positions count from the first letter of the chain named. Numbers in names are those of the source. Each block holds one binder with its values, some of them ahead of it.

Legend:
[1] = molecular target: T1, Recombinant human TWEAK (R&D Systems; Cat. #1090-TW/CF) (human, UniProt O43508 97-249, limits assumed); test: cell-based or functional assay
T1 sequence: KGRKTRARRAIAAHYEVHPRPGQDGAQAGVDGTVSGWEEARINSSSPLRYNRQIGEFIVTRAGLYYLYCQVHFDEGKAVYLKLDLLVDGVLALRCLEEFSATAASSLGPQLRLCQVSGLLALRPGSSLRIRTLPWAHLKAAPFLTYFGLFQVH

[2] = molecular target: T2, IL-17 A/F (human, UniProt Q16552 24-155; Q96PD4 31-163); test: SPR (BIAcore T100), antibody captured by anti-human F(ab')2, IL17 as analyte, 25 C, 1:1 model
T2 construct: read as the heterodimer of IL17A and IL17F
T2 sequence (Q16552 24-155 limits assumed, one chain of several): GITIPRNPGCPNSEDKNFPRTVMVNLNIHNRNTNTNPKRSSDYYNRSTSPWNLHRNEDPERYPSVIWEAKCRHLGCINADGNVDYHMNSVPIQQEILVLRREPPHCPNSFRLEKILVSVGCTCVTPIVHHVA
Description: (§1) Around 12000 resonance units (RU) of the capturing system (10 μg/ml goat anti human F(ab′)2; Order Code: 28958325; GE Healthcare Bio-Sciences AB, Schweden) were coupled on a CMS chip at pH 5.0 by using an amine coupling kit supplied by the GE Healthcare. The sample and system buffer was PBS-T (10 mM phosphate buffered saline including 0.05% Tween20) pH 7.4. The bispecific antibody was captured by injecting a 50 nM solution for 1 min at a flow of 10 μl/min. Association was measured by injection human IL17 in various concentrations in solution for 3 min at a flow of 30 μl/min starting with 50 nM in 1:1 dilutions. The dissociation phase was monitored for up to 5 min and triggered by switching from the sample solution to running buffer. The surface was regenerated by two times 60 sec. washing with a glycin pH 2.1 solution at a flow rate of 30 μl/min. Bulk refractive index differences were corrected by subtracting the response obtained from a goat anti human F(ab′)2 surface. Blank injections are also subtracted (=double referencing). For calculation of apparent KD and other kinetic parameters the Langmuir 1:1 model was used.

[3] = molecular target: T3, IL-17 F/F (human, UniProt Q96PD4 31-163); test: SPR (BIAcore T100), antibody captured by anti-human F(ab')2, IL17 as analyte, 25 C
T3 construct: read as the homodimer of IL17F
T3 sequence: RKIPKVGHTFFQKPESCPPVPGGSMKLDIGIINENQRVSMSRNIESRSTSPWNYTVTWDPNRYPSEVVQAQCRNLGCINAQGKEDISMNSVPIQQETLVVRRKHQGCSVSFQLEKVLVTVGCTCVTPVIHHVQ
Description: as §1

[4] = molecular target: T4, human Tweak-Fc (human, UniProt O43508 106-249, limits assumed); test: SPR (BIAcore T100), TWEAK ligand (Tweak-Fc) amine-coupled on C1 chip, bispecific antibody as analyte, 25 C, 1:1 model
T4 construct: not shown: Fc part
T4 sequence: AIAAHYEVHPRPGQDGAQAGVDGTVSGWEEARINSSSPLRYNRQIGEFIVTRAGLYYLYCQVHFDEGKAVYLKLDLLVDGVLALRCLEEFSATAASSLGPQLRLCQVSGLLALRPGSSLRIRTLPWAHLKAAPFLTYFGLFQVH
From the text: (§2) The BIAcore® system is well established for the study of molecule interactions. SPR-technology is based on the measurement of the refractive index close to the surface of a gold coated biosensor chip. Changes in the refractive index indicate mass changes on the surface caused by the interaction of immobilized ligand with analyte injected in solution. The mass increases if molecules bind immobilized ligands on the surface, and vice versa, the mass decreases in case of dissociation of the analyte from the immobilized ligand (reflecting complex dissociation). SPR allows a continuous real-time monitoring of ligand/analyte binding and thus the determination of the association rate constant (ka), the dissociation rate constant (kd), and of the equilibrium constant (KD).
Around 100 resonance units (RU) of TWEAK was immobilized on the C1 chip surface at pH 5.0 using an amine coupling kit supplied by the GE Healthcare. The sample and system buffer was PBS-T (10 mM phosphate buffered saline including 0.05% Tween20) pH 7.4. Association was measured by injection the bispecific antibody in various concentrations in solution for 3 min at a flow of 30 μl/min starting with 50 nM in 1:1 dilutions. The dissociation phase was monitored for up to 10 min and triggered by switching from the sample solution to running buffer. The surface was regenerated by three times 30 sec. washing with a 3M MgCl2 solution at a flow rate of 30 μl/min. Bulk refractive index differences were corrected by subtracting the response obtained from a blank-coupled surface. Blank injections are also subtracted (=double referencing). For calculation of apparent KD and other kinetic parameters the Langmuir 1:1 model was used.

[5] = molecular target: human IL17A/A (human, UniProt Q16552 24-155, limits assumed); test: SPR (BIAcore T100), antibody captured by anti-human F(ab')2, IL17 as analyte, 25 C, apparent KD, 1:1 model
Sequence of human IL17A/A (Q16552 24-155 limits assumed): as the sequence (Q16552 24-155 limits assumed, one chain of several) above
Description: as §1

[6] = molecular target: T4, human Tweak-Fc; test: SPR (BIAcore T100), TWEAK ligand (Tweak-Fc) amine-coupled on C1 chip, bispecific antibody as analyte, 25 C
From the text: as §2
(§3) Around 100 resonance units (RU) of TWEAK was immobilized on the C1 chip surface at pH 5.0 using an amine coupling kit supplied by the GE Healthcare. The sample and system buffer was PBS-T (10 mM phosphate buffered saline including 0.05% Tween20) pH 7.4. Association was measured by injection the bispecific antibody in various concentrations in solution for 3 min at a flow of 30 μl/min starting with 50 nM in 1:1 dilutions. The dissociation phase was monitored for up to 10 min and triggered by switching from the sample solution to running buffer. […]

[7] = molecular target: T5, recombinant human IL-17 (Peprotech #200-17) (human, UniProt Q16552 20-155); test: cell-based or functional assay
T5 sequence (Q16552 20-155 limits assumed): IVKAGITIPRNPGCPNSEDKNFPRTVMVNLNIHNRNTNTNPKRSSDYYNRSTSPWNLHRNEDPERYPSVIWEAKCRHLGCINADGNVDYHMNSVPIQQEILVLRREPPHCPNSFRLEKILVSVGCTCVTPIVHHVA

[8] = molecular target: T4, human Tweak-Fc; test: SPR (BIAcore T100), TWEAK ligand (Tweak-Fc) amine-coupled on C1 chip, bispecific antibody as analyte, 25 C, apparent KD, 1:1 model
From the text: as §2, §3

[9] = molecular target: T5, recombinant human IL-17 (Peprotech …); test: cell-based or functional assay; remark: listed apart in the source
[10] = molecular target: T6, Human IL17C (human, UniProt Q9P0M4 19-197); test: ELISA on coated IL-17 subtype; OD relative to IL-17A binding (100)
T6 sequence: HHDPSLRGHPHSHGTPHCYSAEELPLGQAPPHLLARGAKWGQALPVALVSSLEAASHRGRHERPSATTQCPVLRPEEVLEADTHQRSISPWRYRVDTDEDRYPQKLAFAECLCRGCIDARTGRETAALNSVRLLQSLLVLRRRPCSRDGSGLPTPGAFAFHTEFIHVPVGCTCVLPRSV
Description: (§4) NUNC® Maxisorp plates (96-well) are coated with recombinant human IL-17 (Peprotech #200-17, www.peprotech.com) at a concentration of 0.5 μg/ml in PBS ([…]). Plates are incubated at 37° C. on an orbital shaker with agitation for 2 hours. Thereafter coating solution is removed and 100 μl/well PBSTC (phosphate buffered saline, 0.05% Tween®20, 2% chicken serum) is added. Plates are incubated at room temperature for 1 hour. […] The second antibody is diluted 1:10000 in PBSTC and plates are incubated for 1 hour at room temperature with agitation. Second antibody is removed, plates are washed three times with 200 μl/well PBST (phosphate buffered saline, 0.05% Tween®20) and 100 μl/well ABTS® (Roche Diagnostics GmbH) is added. Optical density is measured at 405/492 nm in relation to IL-17A binding (set as 100%). Binding to other human IL-17 subtypes (IL-17B, IL-17C, IL-17D, IL-17E and IL-17F) were performed with the same assay format.

[11] = molecular target: T7, Human IL17F (human, UniProt Q96PD4 31-163); test: as above
T7 sequence: T3 sequence
Description: as §4

[12] = molecular target: T8, Human IL17B (human, UniProt Q9UHF5 21-180); test: as above
T8 sequence: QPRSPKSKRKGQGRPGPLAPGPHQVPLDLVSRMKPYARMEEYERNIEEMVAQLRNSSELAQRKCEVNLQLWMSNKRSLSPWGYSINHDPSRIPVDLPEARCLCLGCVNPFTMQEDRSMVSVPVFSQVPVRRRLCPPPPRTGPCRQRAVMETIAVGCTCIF
Description: as §4

[13] = molecular target: T9, Human IL17D (human, UniProt Q8TAD2 16-202, limits assumed); test: as above
T9 sequence: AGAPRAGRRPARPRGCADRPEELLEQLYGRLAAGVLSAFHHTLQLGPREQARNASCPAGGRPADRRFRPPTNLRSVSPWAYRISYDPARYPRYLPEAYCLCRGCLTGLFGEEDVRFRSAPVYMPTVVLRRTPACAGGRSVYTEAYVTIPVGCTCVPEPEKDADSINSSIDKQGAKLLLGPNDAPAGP
Description: as §4

B1: Bispecific <Tweak-IL-17> #4 antibody (bispecific antibody, human IgG1, kappa)
heavy 1: not shown
heavy 2: not shown
light: DIVMTQSPLSLPVTPGEPASISCRSSQSLVHSNGDTYFHWYLQKPGQSPQLLIYKVSNRFSGVPDRFSGSGSGTDFTLKISRVEAEDVGVYYCSQTTHAPFTFGQGTKLEIKRTVAAPSVFIFPPSDEQLKSGTASVVCLLNNFYPREAKVQWKVDNALQSGNSQESVTEQDSKDSTYSLSSTLTLSKADYEKHKVYACEVTHQGLSSPVTKSFNRGEC
notes: Bivalent one-armed scFab format (WO 2011/117330), IgG1 knobs-into-holes
IC50 (nM) per valency, Tweak induced HFLS proliferation (CellTiter Glo) [1]: 0.157 nM
Kd [2]: 270 pM
binding result [3]: no binding (tested: IL17 injected starting with 50 nM)
koff [4]: 5.42e-05 s⁻¹
kon [4]: 426000 M⁻¹ s⁻¹
Kd [5]: 150 pM
T½ [6]: 3.55 h
IL-6 IC50 [nM] per valency (IL-17 induced cytokine production, HFLS-RA) [7]: 1.72 nM
IL-8 IC50 [nM] per valency (IL-17 induced cytokine production, HFLS-RA) [7]: 1.1 nM
Kd [8]: 127 pM

B3: <IL17> 9C6-2B6-134 (antibody, V domains shown)
VH: EVQLVESGGGLVQPGGSLRLSCAASGFSLDSYGVHWVRQAPGKGLEWVSVIWSDGTTTYNSALKSRFTISRDNSKNTLYLQMNSLRAEDTAVYYCARDTHYRLYYYAMDYWGQGTTVTVSS
VL: DIVMTQSPLSLPVTPGEPASISCRSSQSLVHSNGDTYFHWYLQKPGQSPQLLIYKVSNRFSGVPDRFSGSGSGTDFTLKISRVEAEDVGVYYCSQTTHAPFTFGQGTKLEIK
notes: Humanized variant
IL-8 Inhibition IC50 (nM) (CCD-25SK cells, IL-17A + TNF-alpha) [9]: 4.5 nM
IL-6 IC50 [nM] per valency (IL-17 induced cytokine production, HFLS-RA) [7]: 3.56 nM
IL-8 IC50 [nM] per valency (IL-17 induced cytokine production, HFLS-RA) [7]: 2.2 nM
binding result [10]: no binding (tested: 10 µg/ml antibody)
binding result [11]: no binding (tested: 10 µg/ml antibody)
binding result [12]: no binding (tested: 10 µg/ml antibody)
binding result [13]: no binding (tested: 10 µg/ml antibody)

B4: <IL17> 9C6-2B6-136 (antibody, V domains shown)
VH: B3 VH with P41T, D72E, S74A, T77S, E88G
VL: B3 VL
notes: Humanized variant with HC136 and LC136
Kd [2]: 260 pM
binding result [3]: no binding (tested: IL17 injected starting with 50 nM)
IL-8 Inhibition IC50 (nM) (CCD-25SK cells, IL-17A + TNF-alpha) [9]: 1.8 nM
Kd [5]: 180 pM
IL-6 IC50 [nM] per valency (IL-17 induced cytokine production, HFLS-RA) [7]: 1.62 nM
IL-8 IC50 [nM] per valency (IL-17 induced cytokine production, HFLS-RA) [7]: 1.74 nM
binding result [10]: no binding (tested: 10 µg/ml antibody)
binding result [11]: no binding (tested: 10 µg/ml antibody)
binding result [12]: no binding (tested: 10 µg/ml antibody)
binding result [13]: no binding (tested: 10 µg/ml antibody)

Continued, in another order:

IC50 (nM) per valency, Tweak induced HFLS proliferation (CellTiter Glo) [1]: 0.08 nM
koff [4]: 5.31e-05 s⁻¹
kon [4]: 810000 M⁻¹ s⁻¹
Kd [5]: < 200 pM
T½ [6]: 3.63 h
IL-6 IC50 [nM] per valency (IL-17 induced cytokine production, HFLS-RA) [7]: 1.38 nM
IL-8 IC50 [nM] per valency (IL-17 induced cytokine production, HFLS-RA) [7]: 0.9 nM
Kd [8]: 65.6 pM
B2: Bispecific <Tweak-IL-17> #20 antibody (bispecific antibody, human IgG4 S228P, kappa)
heavy 1: EVQLVESGGGLVQPGGSLRLSCAASGFSLDSYGVHWVRQATGKGLEWVSVIWSDGTTTYNSALKSRFTISRENAKNSLYLQMNSLRAGDTAVYYCARDTHYRLYYYAMDYWGQGTTVTVSSASTKGPSVFPLAPCSRSTSESTAALGCLVKDYFPEPVTVSWNSGALTSGVHTFPAVLQSSGLYSLSSVVTVPSSSLGTKTYTCNVDHKPSNTKVDKRVESKYGPPCPPCPAPEFEGGPSVFLFPPKPKDTLMISRTPEVTCVVVDVSQEDPEVQFNWYVDGVEVHNAKTKPREEQFNSTYRVVSVLTVLHQDWLNGKEYKCKVSNKGLPSSIEKTISKAKGQPREPQVCTLPPSQEEMTKNQVSLSCAVKGFYPSDIAVEWESNGQPENNYKTTPPVLDSDGSFFLVSRLTVDKSRWQEGNVFSCSVMHEALHNHYTQKSLSLSLGK
heavy 2: not shown
light: B1 light
notes: Bivalent one-armed scFab format, IgG4 S228P/L235E knobs-into-holes
binding result [3]: no binding (tested: IL17 injected starting with 50 nM)

binding result [10]: no binding (tested: 10 µg/ml antibody)
binding result [11]: no binding (tested: 10 µg/ml antibody)
binding result [12]: no binding (tested: 10 µg/ml antibody)
binding result [13]: no binding (tested: 10 µg/ml antibody)
B5: <IL17> 9C6-2B6 (antibody, V domains shown)
VH: QVQLKESGPGLVAPSQSLSITCTVSGFSLDSYGVHWVRQPPGKGLEWLVVIWSDGTTTYNSALKSRLSITKDNSKSQVFLKMNSLQTDDTAIYYCARDTHYRLYYYAMDYWGQGTSVTVSS
VL: DVVMTQTPLSLPVSLGDQASISCRSSQSLVHSNGDTYFHWYLQKPGQSPKLLIYKVSNRFSGVPDRFSGSGSGTDFTLKINRVEAEDLGVYFCSQTTHAPFTFGSGTKLEIK
notes: Mouse hybridoma antibody; also called mouse clone <IL17>9C6-2B6
